Results from US20040266687A1, “Compositions and methods comprising protein activated receptor antagonists” (priority 2002, published 2004).

Tests used:
[1] = biological target: T1, PAR-2 (Homo sapiens, UniProt P55085); assay: PAR signalling activity: calcium mobilization (Fluo-4) in response to peptides; format: cell-based; conditions: result in words, FIG. 4A-4C
T1 construct: endogenous in cells; host or cells: HUVEC or HT29 colon carcinoma cells
T1 sequence (P55085 26-397): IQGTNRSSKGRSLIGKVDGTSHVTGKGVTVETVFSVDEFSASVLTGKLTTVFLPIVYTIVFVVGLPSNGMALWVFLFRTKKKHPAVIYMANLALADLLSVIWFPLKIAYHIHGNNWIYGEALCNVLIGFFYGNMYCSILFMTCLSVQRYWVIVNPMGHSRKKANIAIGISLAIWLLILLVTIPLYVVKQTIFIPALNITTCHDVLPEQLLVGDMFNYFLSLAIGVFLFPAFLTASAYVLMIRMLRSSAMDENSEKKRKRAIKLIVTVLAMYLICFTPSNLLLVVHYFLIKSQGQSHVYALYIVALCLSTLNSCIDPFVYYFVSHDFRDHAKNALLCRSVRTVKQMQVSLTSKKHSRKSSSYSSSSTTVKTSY
Procedure: (§1) Confluent HUVECs or HT29 colon carcinoma cells were loaded for 30-60 minutes with the fluorescent dye Fluo-4. Final concentration 4 uM Fluo-4, 0.02% pluronic acid in physiological buffer. Cells were then washed with assay buffer, (HBSS containing 1 mM CaCl2, 1 mM MgSO4, and 2.5 mM probenecid). Cells were stimulated with various doses of PAR-2 activating peptide, PAR-1 activating peptide or ATP.
(§2) Fluorescence was monitored using a Wallac 1470 fluorescent plate reader. (See Al-ani et. al Journal of Pharmacology and Experimental Therapeutics 290:2, 753-760)
Calcium mobilization curves of the PAR-2 agonist SLIGKV (SEQ ID NO:25) compared with two truncated molecules LIGK (SEQ ID NO:1) and LIGKV (SEQ ID NO:2) are provided in FIG. 4A. […] Similar studies were performed on alanine substituted SLIGKV (SEQ ID NO:25) peptides (FIGS. 4B and 4C).

[2] = tested on: Lewis lung carcinoma; assay: Lewis lung carcinoma (LLC) experimental metastatic model; format: in vivo, mice; conditions: metastatic tumor growth studies, FIG. 16
Procedure: In this tumor growth model, treatments were initiated on day 3 post inoculation, after tumor cells had homed to the lung, and started growing. […] At a dose of 4 mg/day tumor growth was inhibited by 75%. […] C57/B16 mice were injected i.v. with Lewis lung carcinoma. 3 days later, treatment of lung tumors was started with i.p. LIGK (SEQ ID NO:1) for 11 days.

[3] = biological target: T1, PAR-2; assay: Inhibition of P2AP (SLIGKV)-stimulated PAR-2 signaling in cells pretreated with antagonist; format: cell-based; conditions: result in words; cells pretreated with the substance, then P2AP
Procedure: as §1, §2
In order to assess the potential of peptides selected above to block PAR-2 signaling, cells were pretreated with potential antagonist peptides for a predetermined amount of time and were subsequently treated with P2AP. Methods and protocols used were the same as those described in Example 1.

[4] = biological target: T2, PAR-1 (Homo sapiens, UniProt P25116); assay: Activation study with PAR-1 activation peptide SFLLRN on cells pretreated with antagonist; format: cell-based; conditions: cells pretreated with the substance
T2 construct: endogenous in cells; host or cells: HUVEC or HT29 colon carcinoma cells
T2 sequence (P25116 22-425): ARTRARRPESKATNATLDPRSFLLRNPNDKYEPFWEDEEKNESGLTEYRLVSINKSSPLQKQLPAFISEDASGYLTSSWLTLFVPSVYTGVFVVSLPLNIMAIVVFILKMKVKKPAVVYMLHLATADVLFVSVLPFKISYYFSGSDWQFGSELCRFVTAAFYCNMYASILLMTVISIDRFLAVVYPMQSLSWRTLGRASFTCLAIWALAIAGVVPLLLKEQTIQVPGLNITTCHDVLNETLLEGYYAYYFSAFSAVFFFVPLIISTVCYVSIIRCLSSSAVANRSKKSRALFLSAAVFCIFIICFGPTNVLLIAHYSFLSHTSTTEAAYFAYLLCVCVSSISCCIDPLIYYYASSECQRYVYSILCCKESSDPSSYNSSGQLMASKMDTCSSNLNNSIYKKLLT
Procedure: as §1, §2
(§3) Both of these molecules signal through G-protein coupled receptors, and PAR-1 is very highly homologous to PAR-2, to the degree that the PAR-1 agonist peptide can signal through PAR-2 at high concentrations.

[5] = Arthritis in mice (anti-collagen II antibody plus LPS), foot thickness; format: in vivo; conditions: 200 mg/kg/day i.p. for 7 days, Balb/c mice, FIG. 19
Procedure: On day 0, Balb/c mice were injected IV with the 1 -2 mg 1B11 monoclonal anti-collagen II antibody. On day 1, animals were injected i.p with 20 ug LPS, and treatment with PAR-2 antagonists (200 mg/kg/day i.p). for 7 days is initiated. After treatment was completed, disease is quantified by measuring the thickness (swelling) in both feet of the mouse. This was compared to untreated mice. (p<0.05 vs. vehicle control)

[6] = tested on: ATP signaling (G-protein coupled receptors); assay: Activation study with ATP on cells pretreated with antagonist; format: cell-based; conditions: cells pretreated with the substance
Procedure: as §1, §2, §3

[7] = biological target: T3, Proteinase activated receptor-2 (PAR-2) (UniProt P55085 37-397, limits assumed); assay: cell-based or functional assay
T3 sequence (looked up): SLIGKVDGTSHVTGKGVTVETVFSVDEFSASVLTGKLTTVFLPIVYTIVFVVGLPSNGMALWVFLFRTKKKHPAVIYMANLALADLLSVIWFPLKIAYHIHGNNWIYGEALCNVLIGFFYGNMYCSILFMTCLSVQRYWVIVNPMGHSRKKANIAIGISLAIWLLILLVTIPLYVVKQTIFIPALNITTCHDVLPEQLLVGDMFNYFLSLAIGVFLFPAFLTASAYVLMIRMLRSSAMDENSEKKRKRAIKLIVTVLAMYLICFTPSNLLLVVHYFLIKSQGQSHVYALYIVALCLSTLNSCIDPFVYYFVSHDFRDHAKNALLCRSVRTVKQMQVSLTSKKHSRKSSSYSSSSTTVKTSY

Row | Molecule | calcium mobilization / signaling activity [1] | antagonist activity on PAR-2 signaling [3] | also measured
1 | SLIGKV (listed as Homo sapiens) [reference compound] | typical spike of calcium release followed by degradation of signal | – | –
2 | Br.CC(C)CC(=O)N1CCN(C(=O)CCCCCN)CC1 [ENMD-547] | – | extremely potent inhibitor | antitumor activity relative to the parental LIGK molecule [2]: approximately five fold; inhibitory effect on signaling by PAR-1 (activation peptide SFLLRN) [4]: no inhibitory effects; inflammation (arthritis, foot swelling) [5]: inhibited inflammation; inhibitory effect on signaling by ATP [6]: no inhibitory effects
3 | LIGKV | Neither truncated molecule was able to induce calcium mobilization | demonstrated antagonist activity | –
4 | SLIAKV [alanine substituted SLIGKV peptide] | robust signaling activity | – | –
5 | SLIGKA [alanine substituted SLIGKV peptide] | robust signaling activity | – | –
6 | LIGK [LIGK (SEQ ID NO:1)] | – | – | IC50 of inhibition of PAR-2 signaling (calcium mobilization stimulated by SLIGKV) [7]: < 0.5 mM
